Here are results for 1 molecule from US5487994, “Insertion and deletion mutants of FokI restriction endonuclease” (The Johns Hopkins University).

Data set [1] addresses FokI endonuclease wild-type (Flavobacterium okeanokoites, UniProt P14870 P14870:2-579). The data set can be described thus: filter; with poly(dI-dC), 1 mM EDTA, 50 mM NaCl, 22 C; values only in figure. As to conditions: tags: expressed in E. coli RR1 from pRRSfokIR; label: 32P. The protocol:
(§1) The filter binding assays were performed in duplicate using *Fok*I or mutant enzymes and the four different synthetic substrates, SEQ ID NO:12, SEQ ID NO:13, hemi-methylated oligonucleotide of SEQ ID NO:12 and hemi-methylated oligonucleotide of SEQ ID NO:13. Nine different concentrations for each of the enzymes were made by serial dilutions ([…], 2000, 667, 222, 74.1, 24.7, 8.23, 2.74 and 0.914 nM). The enzymes were mixed with 40 nM of each labelled substrate along with 50 μg/ml p(dI-dC) and 50 μg/ml BSA in 50 μl of buffer A[10 mM Tris. phosphate (pH 8.0), 7 mM 2-mercaptoethanol, 1 mM EDTA, 50 mM NaCl, and 10% (vol/vol) glycerol]. The samples were incubated at 22° C. for 1 hr and then loaded on to nitrocellulose filters. The filters were washed twice with 0.5 ml of buffer A, dried and counted using the scintillation counter.
(§2) Why does the four amino-acid residue insertions enable the mutant enzymes to cleave hemi-methylated DNA and not the larger inserts? The four codon insertions could increase the affinity of the mutants for the hemi-methylated DNA. The binding affinities of wild-type enzyme and both four codon insertion mutants were compared by filter binding assays using the synthetic oligonucleotide substrates (FIGS. 9A, 9B and 9C). The binding affinities were measured in the presence of non-specific DNA, poly dI-dC.

The target of data set [2] is FokI TAEL (+4) insertion mutant (Flavobacterium okeanokoites, UniProt P14870 P14870:2-579, insertion of TAEL after QLV in linker (linker SEQ 21)). Briefly: filter; similar to wild-type. As to conditions: label: 32P. The protocol:
as §1, §2

Chain of FokI endonuclease wild-type (P14870 2-579, one chain of several): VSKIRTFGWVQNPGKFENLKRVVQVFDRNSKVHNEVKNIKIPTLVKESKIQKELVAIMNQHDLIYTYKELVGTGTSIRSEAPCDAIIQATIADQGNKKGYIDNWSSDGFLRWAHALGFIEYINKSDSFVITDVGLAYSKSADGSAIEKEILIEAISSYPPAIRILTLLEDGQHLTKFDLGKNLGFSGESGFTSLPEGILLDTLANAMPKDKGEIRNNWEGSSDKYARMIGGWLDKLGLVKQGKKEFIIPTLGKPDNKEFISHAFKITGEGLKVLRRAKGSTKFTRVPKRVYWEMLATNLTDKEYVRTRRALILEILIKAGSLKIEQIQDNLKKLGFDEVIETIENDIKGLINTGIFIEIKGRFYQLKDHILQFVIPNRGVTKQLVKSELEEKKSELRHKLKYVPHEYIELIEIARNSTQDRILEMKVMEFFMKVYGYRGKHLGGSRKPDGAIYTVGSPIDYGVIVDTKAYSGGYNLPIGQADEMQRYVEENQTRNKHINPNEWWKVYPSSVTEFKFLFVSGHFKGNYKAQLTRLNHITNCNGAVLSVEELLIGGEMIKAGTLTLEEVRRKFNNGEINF
Chain of FokI TAEL (+4) insertion mutant (P14870 other isoform, or with tags, fused parts or gaps with the stated changes): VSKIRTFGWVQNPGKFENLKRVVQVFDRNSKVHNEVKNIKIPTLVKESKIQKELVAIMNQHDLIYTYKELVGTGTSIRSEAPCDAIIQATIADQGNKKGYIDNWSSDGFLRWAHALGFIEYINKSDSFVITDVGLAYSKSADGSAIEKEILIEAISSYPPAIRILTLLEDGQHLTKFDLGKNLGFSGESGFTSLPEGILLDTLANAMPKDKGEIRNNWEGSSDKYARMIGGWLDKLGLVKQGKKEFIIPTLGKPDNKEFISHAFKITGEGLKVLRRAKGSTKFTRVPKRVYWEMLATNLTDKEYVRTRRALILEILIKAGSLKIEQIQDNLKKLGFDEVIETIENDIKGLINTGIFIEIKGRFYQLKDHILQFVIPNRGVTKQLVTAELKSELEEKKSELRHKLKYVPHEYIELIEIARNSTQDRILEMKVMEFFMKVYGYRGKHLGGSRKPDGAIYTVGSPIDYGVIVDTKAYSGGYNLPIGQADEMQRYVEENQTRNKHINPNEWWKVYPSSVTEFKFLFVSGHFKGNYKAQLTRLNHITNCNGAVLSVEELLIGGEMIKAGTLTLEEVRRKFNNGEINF

B1: unmethylated FokI substrate (dsDNA)
DNA 1: CTAGAGTCAGAATTCGAAGACTTGCCGGATGATCTGCAGGCCAGCTGTGGCGTCTAAATTGA
DNA 2: AGCTTCAATTTAGACGCCACAGCTGGCCTGCAGATCATCCGGCAAGTCTTCGAATTCTGACT
Take B1: the binding result in data set [1] and in data set [2] was “binds” throughout.
